Test results taken from the DeepSol protein solubility set.

Assay: soluble on expression in E. coli; label from the status in PepcDB or PDB records

Sequence	soluble on expression in E. coli
MEEPSELGASKEKPIELNEDDESSDGENSVIILDSDTEPEDGAGGEEDEDNGEDSEEEDEEDSDEEESEDDSDSSVDTESVNSVWSNVDEENGEEITTEAAEAKIIKKFEKAIFSIADNDSETGRRILEKLLNDAIIATYNQENPDFELLDEPPRLAKMLQVFIASHRNLAKLCEKEVENADEKEKEQLKSEEIQHLCQVLAYEPNSSDIWLDVALKSIEFGDLNFSKYAFKRCETLKESLESHATLLYLTCDYNESLMIMKQFQEQNDVLNDKLKYLKHKIRSTNQYYKLSCDRIFEEDEVYADVQSVEKRKIQDFDERIEALRSRVVGKIEQRDVDFRDEEEKCSVIPIRIEADQE	not soluble
MRYTILTKGDSKSNALKHKMINHMKDFQMVEDSENPEIVISVGGDGTLLQAFHQYSHMLSKVAFVGIHTGHLGFYADWLPHEVEKLIIEINNSEFQVIEYPLLELIVRYNDNGYETRYLALNEATMKTENGSTLVVDVNIRGKHFERFRGDGLCISTPSGSTAYNKALGGALIHPSLEAMQIAEIASINNRVFRTVGSPLVLPKHHTCLITPVNHDTIRTTIDHVSIKHKNVNAIQYRVANEKVRFARFRPFPFWKRVHDSFISSDDERMAGDPLEHHHHHH	soluble
MLSRAGKHRQLPSLRASQAEASPICSELEDKHKNVQEPDGISNHFLQEKKFAGSESKEYKRKDVVLYREKLLAPEVTNLVSREQMMMHPRDQYLHVLSPYCYSAIEVSHAVFSIFAYIVCDVNWSREYCSKHTTCKQDFKTMIIAVMREYLSMGEAADISRLPRAAMFNLQQAGQLATPTASGTQRRAEPETYVDLHALSDKINHLKTHCNYQIRRDRAFPPMVNLFEIEPRVPVKMSYFLAECKTYGIHQCLHPVSATVKQIDQAFLPAWKARVLFMLGWMDNFFDEDMDDLKRCIRKAINFKVPLKTWESEEDLMVVILEQNQAKLKLARECLTTISKCEHADPHDWLHCNRKRRERHFIVCEYKNPGIWHSSEILKISLKILRQCMGHATLDLKEVNVKSENKIGSDASPDVPLDKKKLKRQKQKLRKAAEPPEPTPPPPPPVIPVPEAKPCEKCFRTSERCNKANAELKTSLNKIKILEKKLSAEKRAFKENQETWEKKLEELQTELQAKERTIQEFQDKVAPKCAESVSDGFLRDGEELIATFDVTSSNATEEFESECIICREDIDLENGTVQCPRCTEIYHSHCATQWLSQKPTCPKCIFHIGHINEFPSLV	not soluble
MPKSEPRYLTIYNQLKNQITSGTLTANEQLPTELQLAKAYNVSRITSKRALTELESQGLIYRKQGSGSFVQPTDQPKTNKQLLLVLPFPTDAGLGDYASGVSLAASAHHYQAVTMDSASFFNLSAKEIHENYAGVIYLPQDLYQEAERIYQLKLAQVPVVILDKTLPALELPVVTADNFSGGQIATDHLLQLGHQQILFYAQRNNTVLPSSVYERYFGYLTALNQQHVTPVTALADLPTLNQFSTNDWLTYLADHQITAIVVENDLTAIKLMNTLRKVDPKIWQRLSIVGFDNIQAASLTYPSLTTVAQDFKGMGTKAVSLLLKTPVQPTTVRLPVQLIQRDSTQPFQPISKEK	not soluble
MIARRNPIEQLPAIAQDPDKFGVLLSAAEFRTHLVESIRQARKRIYLVALYLENDDAGREILTELYAAKQRNPGLEIHICVDWHRAQRGLIGAAESEGNAAMYRDFAQQHEHCIPVYGIPVRGREVFGVLHLKGFIIDDQVIYSGASLNNVYLQFHGRYRFDRYHTLENAELADSMVHFIQQEMLAHPAVNNLACGSKPTTKEIKSDIRQFRASLAQANYQFAKQKVNEGQVAVTPLVGLGRRRNRLNQSIIQLLASAKDEVFICTPYFNFPPSIAKEVKKALRRGVKVHIVIGDKTANDFYIAPEEPFKTIGGLPYLYELNLRRFAKANEAHIASRKLSIHLWKHENHSFHLKGIWVDKRYMLITGNNLNPRAWKLDLENAILIRDDYHHLTTKFEAEIDNILQHTQLICTYKQIEKPEHYPEKVQRLVRRIMRLKADRVLKQILLEHHHHHH	soluble
MTMKMSGTEIQKHFKTLKGTIAITSIEDGDGSHVVWTFDFEKVHKDIDDSHSIIDETVKYLKELDEVLLKFHE	soluble
